{
  "source": "paper PMC2909917",
  "about": "“Dynamic Subunit Exchange and the Regulation of Microtubule Assembly by the Stress Response Protein Human αB Crystallin” (PLoS ONE, 2010)",
  "molecular_target": "the molecule itself",
  "experiment": "SEC; 128 µM αB crystallin alone in 20 mM tris-HCl, 160 µM MgCl2, 40 µM EGTA, pH 8.0; Biosep SEC-S4000, eluted in 20 mM tris-Cl pH 8.0 at 4°C; size from calibration proteins (apparent); subunits to polydisperse complex",
  "data": [
    {"protein": "human αB crystallin (natural protein, UniProt P02511 1-175, looked up, human αB crystallin, expressed from a human αB crystallin pET16b plasmid; 20 kDa on SDS-PAGE; Polydisperse complex; pET16b can add an N-terminal His tag, but purification was by anion exchange and SEC, so the protein is probably untagged (surmise); also called small heat shock protein (sHSP); source: E. coli BL21 (DE3), purified (Q Sepharose Fast Flow, Superdex 200); copies: 24) MDIAIHHPWIRRPFFPFHSPSRLFDQFFGEHLLESDLFPTSTSLSPFYLRPPSFLRAPSWFDTGLSEMRLEKDRFSVNLDVKHFSPEELKVKVLGDVIEVHGKHEERQDEHGFISREFHRKYRIPADVDPLTITSSLSSDGVLTVNGPRKQVSGPERTIPITREEKPAVTAAPKK", "values": [
      {"measurement": "stoichiometry N", "result": 24, "unit": "subunits"}
    ]}
  ]
}
